Data published in patent US20230212268A1 (UNM RAINFOREST INNOVATIONS, published 2023).
Several values for one entry are separate records, joined by “and”; a condition that tells them apart may be missing. Identical values can stand only once. Like-named read-outs stand apart in the source and are kept apart here.

What was measured:
[1] = molecular target: T1, recombinant EBOV glycoprotein (EBOV (Zaire ebolavirus), UniProt Q05320 33-650)
T1 sequence: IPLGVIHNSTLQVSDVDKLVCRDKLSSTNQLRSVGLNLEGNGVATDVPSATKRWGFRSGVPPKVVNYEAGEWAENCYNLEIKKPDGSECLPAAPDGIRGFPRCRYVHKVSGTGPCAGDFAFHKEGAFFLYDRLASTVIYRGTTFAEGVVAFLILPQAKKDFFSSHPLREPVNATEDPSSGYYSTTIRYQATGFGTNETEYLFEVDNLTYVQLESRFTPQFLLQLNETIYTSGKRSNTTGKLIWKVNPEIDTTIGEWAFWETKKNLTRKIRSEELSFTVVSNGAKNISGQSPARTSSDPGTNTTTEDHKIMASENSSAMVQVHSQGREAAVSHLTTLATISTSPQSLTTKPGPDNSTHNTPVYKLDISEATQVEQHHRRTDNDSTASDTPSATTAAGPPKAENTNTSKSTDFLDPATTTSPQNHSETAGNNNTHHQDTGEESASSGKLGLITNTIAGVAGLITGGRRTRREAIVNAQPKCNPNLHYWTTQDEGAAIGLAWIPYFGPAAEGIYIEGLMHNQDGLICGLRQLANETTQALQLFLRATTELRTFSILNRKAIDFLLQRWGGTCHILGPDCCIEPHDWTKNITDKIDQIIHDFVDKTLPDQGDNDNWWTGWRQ

[2] = molecular target: recombinant BDBV glycoprotein (BDBV (Bundibugyo ebolavirus)); assay: ELISA dose response, GP coated
[3] = molecular target: recombinant BDBV glycoprotein (BDBV (Bundibugyo ebolavirus)); assay: ELISA dose response, GP coated; remark: listed apart in the source
[4] = molecular target: T1, recombinant EBOV glycoprotein; assay: ELISA dose response, GP coated
[5] = molecular target: T2, recombinant SUDV glycoprotein (SUDV (Sudan ebolavirus), UniProt Q7T9D9 33-650); assay: ELISA dose response, GP coated
T2 sequence: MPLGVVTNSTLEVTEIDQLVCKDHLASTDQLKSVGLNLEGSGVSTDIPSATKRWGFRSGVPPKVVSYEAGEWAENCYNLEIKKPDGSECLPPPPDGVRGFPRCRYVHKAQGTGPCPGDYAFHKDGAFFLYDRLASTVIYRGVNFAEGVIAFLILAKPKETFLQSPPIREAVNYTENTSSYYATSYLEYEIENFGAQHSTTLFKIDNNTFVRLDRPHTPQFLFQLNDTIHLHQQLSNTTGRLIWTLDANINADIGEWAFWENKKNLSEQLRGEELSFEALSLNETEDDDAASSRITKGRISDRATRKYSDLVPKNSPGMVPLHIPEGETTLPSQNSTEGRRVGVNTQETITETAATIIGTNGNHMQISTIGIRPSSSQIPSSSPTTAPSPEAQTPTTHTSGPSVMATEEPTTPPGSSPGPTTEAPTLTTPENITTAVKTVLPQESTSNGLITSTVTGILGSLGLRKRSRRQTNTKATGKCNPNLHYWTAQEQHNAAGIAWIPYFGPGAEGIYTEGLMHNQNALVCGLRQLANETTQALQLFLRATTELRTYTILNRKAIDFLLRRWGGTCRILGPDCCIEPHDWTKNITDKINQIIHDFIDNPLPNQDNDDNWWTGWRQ

[6] = molecular target: T3, recombinant RESTV glycoprotein (RESTV (Reston ebolavirus), UniProt Q66799 34-651); assay: ELISA dose response, GP coated
T3 sequence: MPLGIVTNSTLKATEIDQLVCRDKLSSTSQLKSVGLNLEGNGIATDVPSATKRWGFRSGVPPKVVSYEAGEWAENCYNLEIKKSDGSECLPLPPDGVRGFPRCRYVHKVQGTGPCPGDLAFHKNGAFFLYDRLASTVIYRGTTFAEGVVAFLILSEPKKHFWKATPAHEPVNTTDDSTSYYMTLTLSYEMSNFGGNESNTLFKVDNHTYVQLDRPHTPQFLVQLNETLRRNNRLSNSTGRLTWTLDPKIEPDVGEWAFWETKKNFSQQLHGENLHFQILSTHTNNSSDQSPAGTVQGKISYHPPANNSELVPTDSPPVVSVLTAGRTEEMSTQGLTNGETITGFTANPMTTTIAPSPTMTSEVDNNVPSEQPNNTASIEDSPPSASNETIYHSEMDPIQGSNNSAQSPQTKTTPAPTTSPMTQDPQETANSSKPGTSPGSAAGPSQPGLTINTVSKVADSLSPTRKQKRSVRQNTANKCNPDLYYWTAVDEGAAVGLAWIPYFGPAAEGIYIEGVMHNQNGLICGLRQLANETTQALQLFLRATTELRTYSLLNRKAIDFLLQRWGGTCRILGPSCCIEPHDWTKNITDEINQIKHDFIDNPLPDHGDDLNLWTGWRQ

[7] = molecular target: T4, recombinant TAFV glycoprotein (TAFV (Tai Forest virus), UniProt Q66810 33-650); assay: ELISA dose response, GP coated
T4 sequence: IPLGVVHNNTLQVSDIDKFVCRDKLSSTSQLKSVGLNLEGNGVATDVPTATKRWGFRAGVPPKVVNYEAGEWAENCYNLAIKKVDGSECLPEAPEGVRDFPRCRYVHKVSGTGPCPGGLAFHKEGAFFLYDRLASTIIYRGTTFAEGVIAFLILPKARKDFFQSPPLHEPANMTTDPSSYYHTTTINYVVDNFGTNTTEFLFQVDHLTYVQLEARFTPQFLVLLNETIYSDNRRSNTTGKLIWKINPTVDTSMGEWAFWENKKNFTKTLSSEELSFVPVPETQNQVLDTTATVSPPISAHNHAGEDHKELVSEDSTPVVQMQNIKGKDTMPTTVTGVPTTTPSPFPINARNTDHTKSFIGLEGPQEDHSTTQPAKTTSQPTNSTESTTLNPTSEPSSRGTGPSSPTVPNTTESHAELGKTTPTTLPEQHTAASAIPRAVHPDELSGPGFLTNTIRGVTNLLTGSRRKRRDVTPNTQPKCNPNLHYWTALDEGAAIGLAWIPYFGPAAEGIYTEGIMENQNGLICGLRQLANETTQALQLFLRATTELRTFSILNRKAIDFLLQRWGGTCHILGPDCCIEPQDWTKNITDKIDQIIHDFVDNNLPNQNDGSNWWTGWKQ

[8] = molecular target: recombinant BDBV glycoprotein (BDBV (Bundibugyo ebolavirus)); assay: maximal binding from ELISA dose-response fit
[9] = molecular target: recombinant BDBV glycoprotein (BDBV (Bundibugyo ebolavirus)); assay: ELISA dose-response fit, reference scFv22-1

B1: EbovGPscFv4-2 (scFv)
scFv: MAWSHPQFEKTGSGGAELVKSGASVKLSCTASGFNIKDDYMHWVKQRPEQGLEWIGWIDPENGDTEYASKFQGKATITADTSSNTAYLQLSSLTSEDTAVYYCTTYYYGSAWFAYWGQGTLVTVSAGGGGSGGGGSGGGGSGGGGSASLSVSVGETVTITCRASGNIHNYLAWYQQKQGKSPQLLVYNAKTLADGVPSRFSGSGSGTQYSLKINNLQPEDFGSYYCQHFWSTPYTFGGGTKLEIKRADAAPTVSIFPPSSEQLTSGGASVVCFLNNFTHCQELQQDECS
[1]
  EC50: 4 µg/mL
[2]
  EC50: 8.19 µg/mL
[3]
  EC50: < 9 µg/mL
[4]
  EC50: 4.09 µg/mL and < 9 µg/mL
[5]
  EC50: 5.3 µg/mL and < 9 µg/mL
[6]
  EC50: < 9 µg/mL and 7.44 µg/mL
[7]
  EC50: < 9 µg/mL and 6.95 µg/mL
[8]
  Bmax signal (relative absorbance units): 220000
[9]
  fold affinity against scFv22-1: 2 fold
